Assay results reported in the RNAGym collection of RNA variant scans (doi:10.1093/nar/gkz1192).

B1: CPEB3 Ribozyme (parent)
chain: UAACAGGGGGCCACAGCAGAAGCGUUCACGUCGCAGCCCCUGUCAGAUUCUGGUGAAUCUGCGAAUUCUGCUGUAUAUCUC

Variants of: B1
Test: self-cleavage, relative activity (ratio to wild type); higher = more cleavage; in vitro, sequencing
Outline: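 Libraries of CPEB3 self-cleaving ribozyme mutants came from rounds of error-prone PCR and carried barcodes, which DNA sequencing matched to variants. In vitro transcription used T7 RNA polymerase at 37°C for 5 hours, with a further 15 min in DNase I before EDTA stopped the reaction; the ribozymes cleaved during both steps. The RNA was reverse transcribed with template switching and sequenced on Illumina. Relative activity is the cleaved/total read fraction of a variant divided by that of the unmutated ribozyme, averaged over three batches with at least 5 reads.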

| Variant | self-cleavage |
| --- | --- |
| UAACAGGGGGCCUCAGCAGAAGCGUUCACGUCGCAGCCCCUGUCAGAUUCUGGUGAAUCUGCAAAUUCUGCUGUAUAUCUC [A13U G63A] | 1.05 |
| UAACAGGGGGCCUCAGCAGAAGCGUUCACGUCGCAGCCCCUGUCAGAUUCUGGUGAAUCUGCUAAUUCUGCUGUAUAUCUC [A13U G63U] | 1.09 |
| UAACAGGGGGCCUCAGCAGAAGCGUUCACGUCGCAGCCCCUGUCAGAUUCUGGUGAAUCUGCGAAUUCUACUGUAUAUCUC [A13U G70A] | 0.48 |
| UAACAGGGGGCCUCAGCAGAAGCGUUCACGUCGCAGCCCCUGUCAGAUUCUGGUGAAUCUGCGAAUUCUCCUGUAUAUCUC [A13U G70C] | 0.21 |
| UAACAGGGGGCCUCAGCAGAAGCGUUCACGUCGCAGCCCCUGUCAGAUUCUGGUGAAUCUGCGAAUUCUGCUAUAUAUCUC [A13U G73A] | 1.23 |
| UAACAGGGGGCCUCAGCAGAAGCGUUCACGUCGCAGCCCCUGUCAGAUUCUGGUGAAUCUGCGAAUUCUGCUCUAUAUCUC [A13U G73C] | 1.26 |
| UAACAGGGGGCCUCAGCAGAAGCGUUCACGUCGCAGCCCCUGUCAGAUUCUGGUGAAUCUGCGAAUUCUGCUUUAUAUCUC [A13U G73U] | 1.24 |
| UAACAGGGGGCCUCAGCAGAAGCGAUCACGUCGCAGCCCCUGUCAGAUUCUGGUGAAUCUGCGAAUUCUGCUGUAUAUCUC [A13U U25A] | 0.26 |
| UAACAGGGGGCCUCAGCAGAAGCGCUCACGUCGCAGCCCCUGUCAGAUUCUGGUGAAUCUGCGAAUUCUGCUGUAUAUCUC [A13U U25C] | 0.28 |
| UAACAGGGGGCCUCAGCAGAAGCGUACACGUCGCAGCCCCUGUCAGAUUCUGGUGAAUCUGCGAAUUCUGCUGUAUAUCUC [A13U U26A] | 1.08 |
| UAACAGGGGGCCUCAGCAGAAGCGUCCACGUCGCAGCCCCUGUCAGAUUCUGGUGAAUCUGCGAAUUCUGCUGUAUAUCUC [A13U U26C] | 0.64 |
| UAACAGGGGGCCUCAGCAGAAGCGUGCACGUCGCAGCCCCUGUCAGAUUCUGGUGAAUCUGCGAAUUCUGCUGUAUAUCUC [A13U U26G] | 0.4 |
| UAACAGGGGGCCUCAGCAGAAGCGUUCACGACGCAGCCCCUGUCAGAUUCUGGUGAAUCUGCGAAUUCUGCUGUAUAUCUC [A13U U31A] | 0.61 |
| UAACAGGGGGCCUCAGCAGAAGCGUUCACGCCGCAGCCCCUGUCAGAUUCUGGUGAAUCUGCGAAUUCUGCUGUAUAUCUC [A13U U31C] | 1.01 |
| UAACAGGGGGCCUCAGCAGAAGCGUUCACGGCGCAGCCCCUGUCAGAUUCUGGUGAAUCUGCGAAUUCUGCUGUAUAUCUC [A13U U31G] | 0.66 |
| UAACAGGGGGCCUCAGCAGAAGCGUUCACGUCGCAGCCCCAGUCAGAUUCUGGUGAAUCUGCGAAUUCUGCUGUAUAUCUC [A13U U41A] | 0.26 |
| UAACAGGGGGCCUCAGCAGAAGCGUUCACGUCGCAGCCCCCGUCAGAUUCUGGUGAAUCUGCGAAUUCUGCUGUAUAUCUC [A13U U41C] | 1.2 |

| Variant | self-cleavage |
| --- | --- |
| UAACAGGGGGCCUCAGCAGAAGCGUUCACGUCGCAGCCCCUGACAGAUUCUGGUGAAUCUGCGAAUUCUGCUGUAUAUCUC [A13U U43A] | 1.09 |
| UAACAGGGGGCCUCAGCAGAAGCGUUCACGUCGCAGCCCCUGCCAGAUUCUGGUGAAUCUGCGAAUUCUGCUGUAUAUCUC [A13U U43C] | 0.93 |
| UAACAGGGGGCCUCAGCAGAAGCGUUCACGUCGCAGCCCCUGGCAGAUUCUGGUGAAUCUGCGAAUUCUGCUGUAUAUCUC [A13U U43G] | 0.26 |
| UAACAGGGGGCCUCAGCAGAAGCGUUCACGUCGCAGCCCCUGUCAGAAUCUGGUGAAUCUGCGAAUUCUGCUGUAUAUCUC [A13U U48A] | 0.56 |
| UAACAGGGGGCCUCAGCAGAAGCGUUCACGUCGCAGCCCCUGUCAGACUCUGGUGAAUCUGCGAAUUCUGCUGUAUAUCUC [A13U U48C] | 0.77 |
| UAACAGGGGGCCUCAGCAGAAGCGUUCACGUCGCAGCCCCUGUCAGAUACUGGUGAAUCUGCGAAUUCUGCUGUAUAUCUC [A13U U49A] | 0.71 |
| UAACAGGGGGCCUCAGCAGAAGCGUUCACGUCGCAGCCCCUGUCAGAUCCUGGUGAAUCUGCGAAUUCUGCUGUAUAUCUC [A13U U49C] | 0.31 |
| UAACAGGGGGCCUCAGCAGAAGCGUUCACGUCGCAGCCCCUGUCAGAUUCAGGUGAAUCUGCGAAUUCUGCUGUAUAUCUC [A13U U51A] | 1.21 |
| UAACAGGGGGCCUCAGCAGAAGCGUUCACGUCGCAGCCCCUGUCAGAUUCCGGUGAAUCUGCGAAUUCUGCUGUAUAUCUC [A13U U51C] | 0.94 |
| UAACAGGGGGCCUCAGCAGAAGCGUUCACGUCGCAGCCCCUGUCAGAUUCGGGUGAAUCUGCGAAUUCUGCUGUAUAUCUC [A13U U51G] | 1.27 |
| UAACAGGGGGCCUCAGCAGAAGCGUUCACGUCGCAGCCCCUGUCAGAUUCUGGAGAAUCUGCGAAUUCUGCUGUAUAUCUC [A13U U54A] | 1.18 |
| UAACAGGGGGCCUCAGCAGAAGCGUUCACGUCGCAGCCCCUGUCAGAUUCUGGCGAAUCUGCGAAUUCUGCUGUAUAUCUC [A13U U54C] | 1.1 |
| UAACAGGGGGCCUCAGCAGAAGCGUUCACGUCGCAGCCCCUGUCAGAUUCUGGGGAAUCUGCGAAUUCUGCUGUAUAUCUC [A13U U54G] | 1.01 |
| UAACAGGGGGCCUCAGCAGAAGCGUUCACGUCGCAGCCCCUGUCAGAUUCUGGUGAAACUGCGAAUUCUGCUGUAUAUCUC [A13U U58A] | 0.44 |
| UAACAGGGGGCCUCAGCAGAAGCGUUCACGUCGCAGCCCCUGUCAGAUUCUGGUGAACCUGCGAAUUCUGCUGUAUAUCUC [A13U U58C] | 0.72 |
| UAACAGGGGGCCUCAGCAGAAGCGUUCACGUCGCAGCCCCUGUCAGAUUCUGGUGAAGCUGCGAAUUCUGCUGUAUAUCUC [A13U U58G] | 0.3 |
| UAACAGGGGGCCUCAGCAGAAGCGUUCACGUCGCAGCCCCUGUCAGAUUCUGGUGAAUCAGCGAAUUCUGCUGUAUAUCUC [A13U U60A] | 0.73 |
